Values of other authors, collected in publication PMC4271846.

Target: tau (Homo sapiens) (UniProt P10636)
Assay: SPR

Kd: 46 µM
Substance: tau (from UniProt P10636)
